Results on 2 molecules are retold here after patent US20200338049A1, “AGENT FOR TREATING FABRY DISEASE, ANALGESIC FOR EXTERNAL USE AND PERSPIRATION ACCELERATOR” (OSAKA UNIVERSITY, priority 2016, published 2020).

The subject of one test is p-mTOR. Put plainly: p-mTOR staining of angiokeratoma of Fabry disease patient before and after ERT. It counts as in vivo, human. The note with it: p-mTOR fluorescent staining. From the text: (§1) The activation state of mTOR in an angiokeratoma of a Fabry disease patient, and the effects of ERT (conventional treatment method to treat Fabry disease) on an angiokeratoma, were checked. An enzyme used in ERT of this test was agalsidase beta, and specific processes of the treatment method were based on usual dosages.
A piece of the skin of a Fabry disease patient including an angiokeratoma lesion was stained with an anti-p-mTOR antibody, and the activation state of mTOR was checked.

Test [1] concerns angiokeratoma of Fabry disease patient. Put plainly: Course of angiokeratomas of Fabry disease patient receiving ERT. The note with it: ERT over eight years. It counts as in vivo, human.
Excerpt: as §1

For test [2], the system named is dorsal root ganglion cells (DRG cells). Put plainly: Axon extension of cultured dorsal root ganglion cells. It counts as cell-based. The note with it: DRG cells of 20-week-old wild-type mouse. The method, then:
Dorsal root ganglion cells (DRG cells) were taken from a 20-week-old wild-type mouse. The dorsal root ganglion nerve cells thus taken were first subjected to extraction with Ham's 12 containing 30% Percoll, and then were cultured at 37° C. for 2 days with the use of a Gibco Neurobasal-A medium (manufactured by Gibco) supplemented with 2 mM GlutaMaxl, 2% B-27 w/o Vitamin A, 5 ng/mL recombinant BDNF carrier free, and 10 ng/mL recombinant human-beta NGF carrier free. Then, the culture medium was replaced with a medium supplemented with 2 mM GlutaMaxl, 2% B-27 w/o Vitamin A, 10 μM Retinoic Acidn, and 100 ng/mL recombinant human-beta NGF carrier free, and then a comparative observation of the extension of axons was carried out with a microscope (BZ-X710, manufactured by KEYENCE), and microscope images were taken.

B1: agalsidase beta (protein, UniProt P06280 32-429, looked up)
Alpha-galactosidase A: LDNGLARTPTMGWLHWERFMCNLDCQEEPDSCISEKLFMEMAELMVSEGWKDAGYEYLCIDDCWMAPQRDSEGRLQADPQRFPHGIRQLANYVHSKGLKLGIYADVGNKTCAGFPGSFGYYDIDAQTFADWGVDLLKFDGCYCDSLENLADGYKHMSLALNRTGRSIVYSCEWPLYMWPFQKPNYTEIRQYCNHWRNFADIDDSWKSIKSILDWTSFNQERIVDVAGPGGWNDPDMLVIGNFGLSWNQQVTQMALWAIMAAPLFMSNDLRHISPQAKALLQDKDVIAINQDPLGKQGYQLRQGDNFEVWERPLSGLAWAVAMINRQEIGGPRSYTIAVASLGKGVACNPACFITQLLPVKRKLGFYEWTSRLRSHINPTGTVLLQLENTMQMSLKDLL
modifications: agalsidase beta
notes: enzyme replacement therapy; enzyme used was agalsidase beta, usual dosages
Take B1: in the test with p-mTOR, the “mTOR activity in angiokeratoma after ERT” value is reported as “mTOR is also active”. Also, the effect on angiokeratomas entry in test [1] was “not effective in treating angiokeratomas”.

B2: BDNF: recombinant BDNF carrier free, brain-derived neurotrophic factor (protein, UniProt P23560 19-247, looked up)
Neurotrophic factor BDNF …: APMKEANIRGQGGLAYPGVRTHGTLESVNGPKAGSRGLTSLADTFEHVIEELLDEDQKVRPNEENNKDADLYTSRVMLSSQVPLEPPLLFLLEEYKNYLDAANMSMRVRRHSDPARRGELSVCDSISEWVTAADKKTAVDMSGGTVTVLEKVPVSKGQLKQYFYETKCNPMGYTKEGCRGIDKRHWNSQCRTTQSYVRALTMDSKKRIGWRFIRIDTSCVCTLTIKRGR
As for B2, the extension of axons entry in test [2] was “axons were found to have extended”.
